Results from publication PMC3874162 (Nucleic Acids Research, 2013).

Tests used:
[1] = biological target: T1, Cdc13-L91R (Saccharomyces cerevisiae, UniProt P32797 1-924, L91R); test: filter binding
T1 sequence: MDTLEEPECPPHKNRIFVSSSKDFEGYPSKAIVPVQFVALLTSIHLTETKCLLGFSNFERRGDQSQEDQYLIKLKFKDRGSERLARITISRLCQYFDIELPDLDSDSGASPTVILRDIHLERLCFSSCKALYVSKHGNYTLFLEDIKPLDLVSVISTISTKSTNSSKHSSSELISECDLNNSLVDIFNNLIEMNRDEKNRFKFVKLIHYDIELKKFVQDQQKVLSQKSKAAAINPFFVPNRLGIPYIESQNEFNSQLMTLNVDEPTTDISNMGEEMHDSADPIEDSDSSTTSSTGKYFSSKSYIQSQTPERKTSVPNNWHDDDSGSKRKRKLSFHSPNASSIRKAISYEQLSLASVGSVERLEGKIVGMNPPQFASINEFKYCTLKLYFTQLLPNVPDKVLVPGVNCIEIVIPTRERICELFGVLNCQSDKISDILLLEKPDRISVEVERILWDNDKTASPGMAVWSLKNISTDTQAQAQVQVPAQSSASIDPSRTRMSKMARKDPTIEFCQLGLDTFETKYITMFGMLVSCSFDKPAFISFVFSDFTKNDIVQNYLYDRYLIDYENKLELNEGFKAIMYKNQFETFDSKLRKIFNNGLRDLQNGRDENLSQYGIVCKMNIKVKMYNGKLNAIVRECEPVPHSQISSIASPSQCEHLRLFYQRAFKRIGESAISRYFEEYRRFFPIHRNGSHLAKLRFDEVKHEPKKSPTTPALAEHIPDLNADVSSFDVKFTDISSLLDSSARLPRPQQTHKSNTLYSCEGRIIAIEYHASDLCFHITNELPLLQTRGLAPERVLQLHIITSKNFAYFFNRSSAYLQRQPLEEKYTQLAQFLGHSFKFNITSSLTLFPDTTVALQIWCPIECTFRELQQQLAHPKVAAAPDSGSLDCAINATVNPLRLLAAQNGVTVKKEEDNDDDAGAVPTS

[2] = biological target: T2, Cdc13-DBD (Saccharomyces cerevisiae, UniProt P32797 497-694); test: filter binding
T2 sequence: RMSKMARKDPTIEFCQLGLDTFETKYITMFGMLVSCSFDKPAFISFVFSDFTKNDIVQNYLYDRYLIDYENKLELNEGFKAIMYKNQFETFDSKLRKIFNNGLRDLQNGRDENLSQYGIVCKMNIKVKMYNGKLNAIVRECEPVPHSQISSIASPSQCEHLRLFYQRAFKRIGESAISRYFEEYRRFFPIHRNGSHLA

[3] = biological target: T3, Cdc13 (Saccharomyces cerevisiae, UniProt P32797 1-924); test: filter binding
T3 sequence: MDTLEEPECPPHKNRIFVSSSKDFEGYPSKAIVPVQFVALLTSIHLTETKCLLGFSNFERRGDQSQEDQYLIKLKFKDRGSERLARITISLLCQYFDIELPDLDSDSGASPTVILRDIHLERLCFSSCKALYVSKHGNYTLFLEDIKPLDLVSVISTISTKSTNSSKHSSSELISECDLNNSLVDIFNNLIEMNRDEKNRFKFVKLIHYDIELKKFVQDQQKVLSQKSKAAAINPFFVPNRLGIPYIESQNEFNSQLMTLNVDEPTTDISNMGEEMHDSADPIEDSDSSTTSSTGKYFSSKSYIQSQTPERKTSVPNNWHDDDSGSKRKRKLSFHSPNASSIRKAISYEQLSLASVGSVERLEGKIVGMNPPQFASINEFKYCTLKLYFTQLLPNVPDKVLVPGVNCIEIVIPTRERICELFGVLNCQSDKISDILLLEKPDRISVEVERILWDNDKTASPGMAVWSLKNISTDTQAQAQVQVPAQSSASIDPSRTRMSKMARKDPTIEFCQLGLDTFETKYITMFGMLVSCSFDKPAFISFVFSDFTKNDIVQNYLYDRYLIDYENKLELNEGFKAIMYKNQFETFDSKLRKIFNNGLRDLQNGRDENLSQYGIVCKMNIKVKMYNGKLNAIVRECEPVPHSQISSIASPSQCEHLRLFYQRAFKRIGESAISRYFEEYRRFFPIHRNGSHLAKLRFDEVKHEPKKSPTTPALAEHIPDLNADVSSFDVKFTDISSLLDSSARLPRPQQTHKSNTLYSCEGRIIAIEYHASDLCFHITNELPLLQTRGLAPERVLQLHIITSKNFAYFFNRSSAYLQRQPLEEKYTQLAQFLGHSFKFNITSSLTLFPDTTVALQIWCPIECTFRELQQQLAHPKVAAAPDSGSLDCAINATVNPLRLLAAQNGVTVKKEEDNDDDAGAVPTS

[4] = biological target: T3, Cdc13; test: EMSA

GTGTGGGTGTG (ssDNA) [Tel11]
Kd [1]: 220 ± 50 pM
Kd [2]: 210 ± 20 pM
Kd [3]: 410 ± 40 pM
Kd [4]: 13.4 ± 0.4 pM
